Data: PMC10654211, “GTPBP8 is required for mitoribosomal biogenesis and mitochondrial translation” (Cellular and Molecular Life Sciences: CMLS, 2023)

Substrate: Nc1nc2c(ncn2[C@@H]2O[C@H](COP(=O)(O)OP(=O)(O)OP(=O)(O)O)[C@@H](O)[C@H]2O)c(=O)[nH]1
Assay: purified protein
Type: biochemical, Homo sapiens
Settings: 12 μM GTPBP8, 0-3 mM GTP, kit reaction buffer, 25 °C, intrinsic GTPase activity

B1: GTPBP8 (GTP-binding protein 8) (Homo sapiens) (protein)
chain: MAAPGLRLGAGRLFEMPAVLERLSRYNSTSQAFAEVLRLPKQQLRKLLYPLQEVERFLAPYGRQDLHLRIFDPSPEDIARADNIFTATERNRIDYVSSAVRIDHAPDLPRPEVCFIGRSNVGKSSLIKALFSLAPEVEVRVSKKPGHTKKMNFFKVGKHFTVVDMPGYGFRAPEDFVDMVETYLKERRNLKRTFLLVDSVVGIQKTDNIAIEMCEEFALPYVIVLTKIDKSSKGHLLKQVLQIQKFVNMKTQGCFPQLFPVSAVTFSGIHLLRCFIASVTGSLD
notes: His-tagged, purified; full-length human CDS in pENTR221, GTPBP8 cloned into pHAT (and pGAT2); full-length 284 residues
Question: B1 was tested. Which Km did it give?
Answer: 200 ± 40 µM

Question: What about the kcat of the same protein?
Answer: 0.000132 ± 5.5e-05 s⁻¹
